Measured values reported in FireProtDB (doi:10.1021/bi0525223).

B1: Protein P-30, P22069 (parent)
chain: QDWLTFQKKHITNTRDVDCDNIMSTNLFHCKDKNTFIYSRPEPVKAICKGIIASKNVLTTSEFYLSDCNVTSRPCKYKLKKSTNKFCVTCENQAPVHFVGVGSC

Variants of: B1
Settings: Lithobates pipiens, pH 5.5, sodium acetate 100 mM, reversible: Yes, structure 1ONC, whole UniProt chain shown; for ddG of mutation (higher = less stable) / denaturant midpoint (higher = more stable): 20 °C, GdnHCl, Fluorescence; for Tm / change of melting temperature, mutant - wild type (higher = more stable): Thermal, DSC

Variant	ddG of mutation (higher = less stable) [kcal/mol]	denaturant midpoint (higher = more stable) [M]	Tm [°C]	change of melting temperature, mutant - wild type (higher = more stable) [°C]
QDWLTFQKKHITNTRDVDCDNIMSTNLFHCKDKNTYIYSRPEPVKAICKGIIASKNVLTTSEFYLSDCNVTSRPCKYKLKKSTNKFCVTCENQAPVHFVGVGSC [F36Y]	4.66	3	79.2	-9.3
QDWLTFQKKHITNTRDVDCDNIMSTNLTHCKDKNTFIYSRPEPVKAICKGIIASKNVLTTSEFYLSDCNVTSRPCKYKLKKSTNKFCVTCENQAPVHFVGVGSC [F28T]	5.31	2.8	77.4	-11.1
QDWLTFQKKHITNTRDVDCDNIMSTNLAHCKDKNTFIYSRPEPVKAICKGIIASKNVLTTSEFYLSDCNVTSRPCKYKLKKSTNKFCVTCENQAPVHFVGVGSC [F28A]	5	2.9	78.1	-10.4
QDWLTFQKKHITNTRDVDCDNIMSTNLFHCKDKNTFIYSRPEPVKAICKGIIASKNVLTTSEFYLSDCNVTSRPCKYKLKKSTNKFAVTCENQAPVHFVGVGSA [C87A C104A]	7.65	2.1	69.4	-19.1
